According to patent US5635615, “High affinity HIV nucleocapsid nucleic acid ligands” (NeXstar Pharmaceuticals, Inc.):

Experiments:
Conditions in all cases: tags: processed NC, 55 aa, from pBH10, gift of Agouron Pharmaceutical; label: 5'-32P
[1] = molecular target: T1, HIV-1 nucleocapsid p7 (NC) (Human immunodeficiency virus type 1 …, UniProt P03347 P03347:378-432); test: filter; 10 mM NaOAc pH 5.3, 0.1 mM ZnCl2, 5 mM MgCl2, 100 mM NaCl, 37 C
Procedure: Binding assays were done by adding 5 μl of HIV-1 p7 nucleocapsid protein, at the appropriate concentrations (i.e., ranging from 6×10^-10 to 5×10^-8), to 45 μl of binding buffer (10 mM NaOAc (pH 5.3), 2 mM 2-mercaptoethanol, 0.1 mM ZnCl_2, 5 mM MgCl_2, 100 mM NaCl) on ice, then adding 80,000 cpm of kinased RNA (<200 fmoles) in a volume of 3 to 4 μl. This mix was incubated at 37° C. for 20 minutes. The reactions were then passed over nitrocellulose filters, which were pre-equilibrated in the same buffer, and washed five times with one milliliter each time using a 50 mM Tris-Cl pH 7.5 solution. Filters were dried and counted in cocktail. The protein used in these experiments were frozen and thawed only once. Each binding curve consisted of seven points and each point is the average of duplicates.
The dissociation constants for 12 of the 14 RNA species were determined by nitrocellulose filter binding. These experiments were carried out in duplicates. All binding curves were done using γ-^32P labeled RNA in binding buffer containing 100 mM NaCl.

[2] = molecular target: T1, HIV-1 nucleocapsid p7 (NC); test: inhibition; inhibition of NC-stimulated annealing of con+/con- DNA, 10 nM NC
Procedure: (§1) This buffer was used and the concentration of each oligo was reduced keeping their action time constant to find an oligo concentration that would give less than 10% duplex formation under these conditions. The conditions in the reaction used for inhibition assay was as follows. 400 pM each DNA oligo (con+/−) was mixed with 10 nM nucleocapsid for 6 minutes at 37° C. in binding buffer containing 200 mM NaCl in a reaction volume of 30 µl. After this time, reactions were stopped by placing on ice and loaded on gel after 2 minutes. Gels were run at 250 volts for 3.5 hours. In reactions where random RNA was added as inhibitor, the concentrations range from 6500 nM to 9 nM. Where selected RNAs were used, the range was 720 nM to 0.11 nM.

[3] = molecular target: T1, HIV-1 nucleocapsid p7 (NC); test: inhibition; about 50% inhibition of NC-stimulated annealing of con+/con- DNA, 10 nM NC
Procedure: as §1

Binder	Kd [1] [nM]	Ki [2] [nM]	IC50 [3] [nM]
400-23 (ssRNA) RNA: GGGAGCUCAGAAUAAACGCUCAACUGAGAACUCUCCCGCUCGCAUUAUUAACCUUCGACAUGAGGCCCGGAUCCGGC	6	3	–
400-17 (ssRNA) RNA: GGGAGCUCAGAAUAAACGCUCAAGUUCUGAGAACUCUCCCCAUUCUAGUGUGCUUCGACAUGAGGCCCGGAUCCGGC	2	–	~0.5
